These results are taken from patent US20100092460A1 (Ablynx, published 2010).

Test [1] deals with T1, recombinant human CXCL11/I-TAC (human, UniProt O14625 22-94, biotinylated in the ELISA; 125I label in the radioligand assays).
T1 sequence (looked up): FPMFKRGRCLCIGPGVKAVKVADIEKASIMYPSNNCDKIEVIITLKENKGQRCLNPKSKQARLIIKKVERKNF
Briefly: inhibition of 125I-CXCL11 binding to hCXCR3 (HEK293T cells), 10x diluted periplasm.

The target in test [2] is T2, recombinant human CCL2/MCP1 (human, UniProt P13500 24-99, 125I label in the radioligand assays).
T2 construct: Immunogen and selection antigen was the Mucin stalk Chimera (R&D 979-MC/CF)
T2 sequence (P13500 24-99 limits assumed): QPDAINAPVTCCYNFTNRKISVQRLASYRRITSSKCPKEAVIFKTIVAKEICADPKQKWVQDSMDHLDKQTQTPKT
In words: ELISA, periplasmic extract on coated CCL2, anti-myc detection. In general terms: In an ELISA, binding on a coated surface is turned into a signal by an enzyme label.

For test [3], the target named is T1, recombinant human CXCL11/I-TAC. Briefly: inhibition of 125I-CXCL11 binding to hCXCR3 (HEK293T cells), 10x diluted periplasm; ELISA grade at the label.
Test [4] has as its target T2, recombinant human CCL2/MCP1. In words: inhibition of 125I-CCL2 binding to HCMV-US28 (HEK293T cells), 10x diluted periplasm; ELISA grade at the label.

Substitutions are numbered along the chain they refer to.

B1: Nanobody 11B8 (VHH)
VHH: EVQLVESGGGLVQPGGSLRLSCAASGFTLDDYVIGWFRQAPGKEREGVSGISSSDGSTYYADSVKGRFTISRDNAKNTVYLQMNSLKPEDTAVYYCAAGMGVLRLWVLSKLSYDYWGQGTQVTVSS
notes: llama VHH against CXCL11; not shown: C-terminal c-myc tag and (His)6 tag coded by the vector
As to B1, the binding result in test [1] is given as “binds”.

B2: Nanobody 8B2 (VHH)
VHH: EVQLVESGGGLVQAGGSLRLSCAASGGTFASYGMGWFRQYPGKEREFVAAISRSGDSTYYADSVKGRFTISRDNAKNTVYLQMNSLKPEDTAVYYCAAGRFIPQLSAYDYWGQGTQVTVSS
notes: llama VHH against CCL2; not shown: C-terminal c-myc tag and (His)6 tag coded by the vector
Turning to B2, the binding result in test [2] is “binds”.

B3: Nanobody 11E5 (VHH)
VHH: EVQLVESGGGLVQAGGSLRLSCAASGFTFDDYAIGWFRQAPGKEREGVSWISSSDKDTYYADSVKGRFTISSDNAKNTVYLQMNSLKPEDTAVYYCAAGAGLLIATIWTTQMYDYWGQGTQVTVSS
notes: as for B1
For the molecule B3, the binding result in test [1] is “binds”.

B4: Nanobody 11G2 (VHH)
VHH: B3 VHH with K56G, D57S, L102F, A105T
notes: as for B1
Turning to B4, the binding result in test [3] is on record as “binds”.

B5: Nanobody 11D1 (VHH)
VHH: EVQLVESGGGLVQAGGSLRLSCAASGFTLNDYAIGWFRQAPGKEREGVSLISSDDGSTYYADSVKGRFTISSDNAKNTVYLQMNSLKPEDTAVYYCAAAQGLLLLSLWVPTQYDYWGQGTQVTVSS
notes: as for B1
For B5, in test [1], the binding result is reported as “binds”.

B6: Nanobody 11C2 (VHH)
VHH: EVQLVESGGGLVQAGGSLRLPCAASGFTFDDYVIGWFRQAPGKEREGVSLISSSDGSTYYADSVKGRFTISSDNAKNTVYLQMNGLKPEDTAVYYCAATSSIPYYSGSYYPNPFEYDYWGQGTQVTVSS
notes: as for B1
Regarding B6, the binding result in test [3] is given as “binds”.

B7: Nanobody 8A5 (VHH)
VHH: QVQLVESGGGLVQAGGSLALSCAASGIAFSIFDMAWFRQTPGKEREAVARISHGGGKDYLDSVKGRFTISRDNAKNTVTLQMTSLKPEDTAVYYCNAKNSFRNLWGQGTQVTVSS
notes: as for B2
As to B7, the binding result in test [2] is “binds”.

B8: Nanobody 11F7 (VHH)
VHH: EVQLVESGGGLVQAGGSLRLSCAASGGTFTKQTMGWFRQTPGKDREFVAVQWWTGLSTYSAEYADSVKGRFTISRDNAKNTAYLQMNSLKFEDTAVYYCAAGLGVVRTFIRRASSYDDWGQGTQVTVSS
notes: as for B1
Regarding B8, the binding result in test [1] is recorded as “binds”.

B9: Nanobody 8A7 (VHH)
VHH: EVQLVESGGGLVQAGGSLRLSCAASGRTFSSYRMGWFRQAPEKEREFVAVISRSGGSTFYSNSVKGRFTISRDNAKNTVYLQMNSLKPEDTAVYYCAAGAQMGWAEASTYDYWGQGTQVTVSS
notes: as for B2
In the case of B9, the binding result in test [2] is reported as “binds”.

B10: Nanobody 15H7 (VHH)
VHH: B9 VHH with E6K, V50L, S57T, K87E
notes: as for B2
Take B10: the binding result in test [2] is reported as “binds”.

B11: Nanobody 8A8 (VHH)
VHH: B9 VHH with S52T, G56S, S57D, T58Q, M102I
notes: llama VHH against CCL2; also called 8D8; 15C7; not shown: C-terminal c-myc tag and (His)6 tag coded by the vector
For B11, in test [4], the binding result is reported as “binds”.

B12: Nanobody 8H8 (VHH)
VHH: B9 VHH with V2M, V50L, S52N, T58Q
notes: as for B2
With B12, the binding result in test [4] is recorded as “binds”.

B13: Nanobody 8D7 (VHH)
VHH: B9 VHH with V50L, S52T, S57T, K87E
notes: as for B2
Regarding B13, the binding result in test [2] is given as “binds”.

B14: Nanobody 8E7 (VHH)
VHH: B9 VHH with R27G, S52T, T58H, F59S
notes: as for B2
Regarding B14, in test [2], the binding result is on record as “binds”.

B15: Nanobody 15F7 (VHH)
VHH: B9 VHH with S21P, S57D, N62S
notes: as for B2
For the molecule B15, the binding result in test [2] was “binds”.

B16: Nanobody 11D5 (VHH)
VHH: EVQLVESGGGLVQPGGSLRLSCAASRSGLSINAMGWFRQAPGKQRELVASITRGGPTIYADSVKGRFTISGDNAKNTVYLQMNSLKPEDTAVYYCNALIDYGLGFPIEYWGQGTQVTVSS
notes: as for B1
B16: in test [1], the binding result is “binds”.

B17: Nanobody 11G8 (VHH)
VHH: EVQLVESGGGLVQAGGSLRLSCAASGRTFSSYAMGWFRQAPGKEQEFVAAISWSGGSTYYADSVKGRFTISRDNAKNTVYLQMNSLKPEDTAVYYCAAHDVDDDESPYYSGGYYRALYDYWGQGTQVTVSS
notes: as for B1
With B17, the binding result in test [1] is “binds”.

B18: Nanobody 8D5 (VHH)
VHH: EVQLVESGGGLVQAGGSLRLSCAASGRTFSNYAMDWFRQAPGKEREFVAAISKSDGSTYYADSVKGRFTISRDNAKNTVYLQMNSLKPEDTAVYYCAAEGDSSPMGGVTYDYWGQGTQVTVSS
notes: as for B2
As to B18, the binding result in test [2] is “binds”.

B19: Nanobody 15H3 (VHH)
VHH: EVQLVESGGGLVQAGGSLRLSCAASGGTFSNYAMGWFRQAPEKEREFVAAVIWRGGSTYYADSVKGRFTISRDNARNTVYLQMNSLKPEDTAVYYCAADLLGNSDYEPSSGFGSWGQGTQVTVSS
notes: as for B2
On to B19, for which the binding result in test [2] is given as “binds”.

B20: Nanobody 11C7 (VHH)
VHH: EVQLVESGGGLVQAGGSLRLSCAAASGGTFTKQTISWFRQAPGKDREFVAAQWWSGLSTYFAEYADSVKGRFTISRDNAKNTAYLEMNSLKFEDTAVYYCAAGLGVVRTLIRRASSYDYWGQGTQVTVSS
notes: as for B1
Turning to B20, the binding result in test [1] is “binds”.

B21: Nanobody 11D2 (VHH)
VHH: EVQLVESGGGLVQAGGSLRLSCAASGFSFDDYAIGWFRQAPGKEREGVSLISSSDGSTYYADSVKGRFTISSDNAKNTVYLQMNSLKPEDTAVYYCAAGQGLLRAQALRWESYDYWGQGTQVTVSS
notes: llama VHH against CXCL11; also called 11G1; 11H1; not shown: C-terminal c-myc tag and (His)6 tag coded by the vector
Regarding B21, the binding result in test [3] is given as “binds”.

B22: Nanobody 11A3 (VHH)
VHH: B21 VHH with A33V, Q100N, A105L, Q106W, A107M, L108F, R109H, W110V, E111S, S112A
notes: as for B1
Regarding B22, the binding result in test [3] is recorded as “binds”.

B23: Nanobody 11A1 (VHH)
VHH: B21 VHH with S28T, F29L, L50C, S54I, S57D, Y59V, I70A, V79A, R104T
notes: as for B1
On to B23, for which the binding result in test [1] is “binds”.

B24: Nanobody 11H2 (VHH)
VHH: B21 VHH with S28T, L50C, S57D, I70A, M83I, R104I
notes: llama VHH against CXCL11; purified; not shown: C-terminal c-myc tag and (His)6 tag coded by the vector
For the molecule B24, the binding result in test [3] was “binds”.

B25: Nanobody 11D10 (VHH)
VHH: EVQLVESGGGLVQAGGSLRLSCAASGFTIDDYAIGWFRQAPGKEREGVSCISSSDGSTYYADSVKGRFTISSDNAKNTVYLQMNSLKPEDTAVYYCAAAQGLVVTEMFVGRSYDYWGQGTQVTVSS
notes: as for B1
On to B25, for which, in test [1], the binding result is given as “binds”.

B26: Nanobody 8E5 (VHH)
VHH: EVQLVESGGGLVQAGGSLRLSCAASGGTFSSYRMAWFRQTPGKEREFVTLISRSGGTTDYTDSVKGRFTISRDNAKNTVYLQMNSLKPEDTAVYYCAAAGSMGWNHFREYDYWGQGTQVTVSS
notes: as for B2
On to B26, for which, in test [2], the binding result is given as “binds”.

B27: Nanobody 15H4 (VHH)
VHH: EVQLVESGGGLVQAGGSLRLSCAASGLTFSTYPMGWFRQAPGKEREFVAAINSGGSSTYYADSVKGRFTISRDNAKNTVYLQMNSLKPEDTAVYSCAVKIYSGSYSSPPGYNYWGQGTQVTVSS
notes: as for B2
On to B27, for which the binding result in test [2] is “binds”.

B28: Nanobody 8E1 (VHH)
VHH: B27 VHH with S57Y, K76V, V79I, Y113H
notes: as for B2
Regarding B28, the binding result in test [2] is “binds”.

B29: Nanobody 8D1 (VHH)
VHH: EVQLVESGGGLVQPGGSLRLSCAASGFNLDDYAIGWFRQAPGKEREGVACASSTDGSTAYADSVKGRFTVSRDNAKNTVYLQMNSLKPEDTAVYYCAADPSDPFCPGLYYGMDYWGKGTLVTVSS
notes: as for B2
In the case of B29, the binding result in test [2] is recorded as “binds”.

B30: Nanobody 11E2 (VHH)
VHH: EVQLVESGGGLVQAGGSLRLSCAASGFTFDDYAIGWFRQAPGKEREGVSCISSSDDSTYYADSVKGRFTISSDTAKNTVYLQMDSLKPEDTAVYYCAKDCIIPPIGSWGQGTQVTVSS
notes: as for B1
Take B30: in test [3], the binding result is recorded as “binds”.

B31: Nanobody 8H7 (VHH)
VHH: EVQLVESGGGLVQAGDSLRLSCAASGRTFSSYRMGWFRQAPGKEREFVAAISRSGASAYYADSVKGRFTSSRDNAKNTVYLQMNKLKPEDTAVYYCAASSRIGVDDPEAYGYWSQGTQVTVSS
notes: as for B2
Consider B31, for which the binding result in test [4] is “binds”.

B32: Nanobody 11F2 (VHH)
VHH: EVQLVESGGGLVQPGGSLRLSCAASGFTFSSYAMSWVRQAPGKGLEWVSSIYSDGSNTYYADSVKGRFTISRDNAKNTLYLQMNSLKSEDTAVYYCAKKDYAVVPLDEYDYWGQGTQVTVSS
notes: llama VHH against CXCL11; also called 38D11; not shown: C-terminal c-myc tag and (His)6 tag coded by the vector
B32: the binding result in test [3] is recorded as “binds”.
